Results reported in publication PMC8318587, “Structure-guided microbial targeting of antistaphylococcal prodrugs” (eLife, 2021).
Entries after “also recorded” stand apart in the source; their conditions may differ.

Columns and labels:
SaFrmB = target: T1, SaFrmB (Staphylococcus aureus, UniProt A0A0H3KFB7); experiment: Esterase substrate specificity, fluorogenic SAR library kinetics; assay type: biochemical; conditions: for In vitro activity (catalytic efficiency) for FrmB, in words: fluorogenic ester substrate
T1 construct: made in house; host or cells: E. coli BL21 (DE3)
T1 sequence (A0A0H3KFB7 1-253): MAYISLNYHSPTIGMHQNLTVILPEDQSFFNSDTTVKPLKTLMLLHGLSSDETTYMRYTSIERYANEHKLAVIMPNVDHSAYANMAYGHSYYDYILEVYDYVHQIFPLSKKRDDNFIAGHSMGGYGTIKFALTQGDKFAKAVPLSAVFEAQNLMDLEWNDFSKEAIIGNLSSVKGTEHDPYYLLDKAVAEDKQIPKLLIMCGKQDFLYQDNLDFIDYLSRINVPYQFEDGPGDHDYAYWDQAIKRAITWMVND
Method: (§1) Kinetic measurements were performed according to [White et al., 2018] with minor variation. Lyophilized human and mouse sera were resuspended according to manufacturer instructions in highly pure, filtered water at protein concentrations of 85 mg/mL and 70 mg/mL, respectively. One milliliter of resuspended serum was added to a 24 mL mastermix for a final concentration of 31.25 mM Tris pH 7.5, 312.5 mM NaCl, 1.25 mM MgCl2, 12.5% glycerol, and 3.4 mg/mL or 2.8 mg/mL protein for human and mouse serum, respectively. For purified proteins, 5 mL of a 75 µg/mL stock was added to yield a 20 mL mastermix containing 31.25 mM Tris pH 7.5, 312.5 mM NaCl, 1.25 mM MgCl2, 12.5% glycerol, and 18.75 µg/mL protein. Mastermix was stored on ice when not in use. Twenty microliters of mastermix was transferred to a black, 96-well half area microplate (Corning, CLS3993) and prewarmed at 37°C. Fluorogenic substrates were prepared as 10 mM stock solutions in 100% DMSO and were diluted in water to a starting concentration of 500 µM. Enzyme catalyzed substrate hydrolysis was initiated by addition of 5 µL substrate dilution in technical duplicate to the prewarmed serum or protein solution. Final assay concentrations were as follows: 25 mM Tris pH 7.5, 250 mM NaCl, 1 mM MgCl2, 10% glycerol, and protein at a concentration of 2.72 mg/mL (human serum), 2.24 mg/mL (mouse serum), or 15 µg/mL (FrmB, GloB). The resulting change in fluorescence (λex = 485 nm, λem = 520 nm) was followed for 15 min at 37°C, collecting data every 30 s on a FLUOstar Omega microplate reader (BMG Labtech). Fluorescence measurements were converted to molar concentrations using a fluorescein standard curve (2.5 nmol–0.6 pmol). The initial rates of reaction were measured three independent times with two technical replicates per measurement and fit to a line using GraphPad Prism (GraphPad Software, La Jolla, CA). Initial rates of reaction were plotted versus the concentration of substrate and fit to a standard Michaelis–Menten equation (v = Vmax[S]/(Km + [S])), yielding estimates of Vmax and Km. Values for kcat and kcat/Km were calculated based on amount of enzyme added when purified enzymes were used.

SaGloB = target: T2, SaGloB (Staphylococcus aureus, UniProt P0DY75); experiment: as above; assay type: biochemical
T2 sequence (P0DY75 1-207): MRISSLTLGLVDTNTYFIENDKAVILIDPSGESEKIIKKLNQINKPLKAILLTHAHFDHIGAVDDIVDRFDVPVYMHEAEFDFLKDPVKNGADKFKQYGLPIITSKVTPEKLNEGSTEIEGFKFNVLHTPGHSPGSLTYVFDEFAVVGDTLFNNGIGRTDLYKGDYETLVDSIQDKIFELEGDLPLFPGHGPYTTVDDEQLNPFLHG
Method: as §1

human sera = experiment: Esterase substrate specificity, fluorogenic SAR library kinetics in serum; assay type: in vitro ADME
Method: as §1

mouse sera = experiment: as above; assay type: in vitro ADME
Method: as §1

S. aureus = experiment: Microfluidics live cell imaging of pro-fluorescent substrate activation; assay type: cell-based, Staphylococcus aureus; conditions: 10 µM pro-fluorescent substrate, 37°C
Method: Overnight cultures of S. aureus were grown in LB media, back diluted 1:500, and grown to early exponential phase (OD600 0.1–0.15), then washed in 1× PBS, and loaded on a bacterial CellASIC ONIX2 microfluidic plate. Prior to cell loading, the microfluidics plate lines were flushed with 1× PBS + 1% DMSO or 10 µM fluorescent pro-substrate in 1× PBS + 1% DMSO, and the plate was preincubated at 37°C. The microfluidics plate was loaded onto a Nikon Ti-E inverted microscope (Nikon Instruments, Inc) equipped with a 100× Plan N (N.A. = 1.45) Ph3 objective, SOLA SE Light Engine (Lumencor), heated control chamber (OKO Labs), and an ORCA-Flash4.0 sCMOS camera (Hammamatsu Photonics). The GFP filter set was purchased from Chroma Technology Corporation. Cells were loaded into the chamber until a single field of view contained 50–150 cells or cell clusters. […] Images were acquired every two min for a total of 44 min, and all experiments were undertaken at 37°C. The phase-contrast exposure time was kept constant at 200 ms, and the fluorescent channel exposure time was kept constant at 500 ms. For fluorescent images, the gain remained constant across all experiments. Image capture and analysis was performed using Nikon Elements Advanced Research software. Individual cells or clusters of cells were auto detected in the fluorescent channel using the intrinsic background fluorescence of each cell. […] Fluorescent intensity for each individual cell or cluster of cells was measured through the duration of the experiment and normalized to the area of the identified cell to yield the mean fluorescent intensity. Background cell autofluorescence was corrected by subtracting the average fluorescence across all identified objects from t = 0 through t = 10. Each experiment was performed in duplicate, with >50 individual cells or clusters analyzed in each experiment.

[1] = substrate: CC(C)OCC(=O)OCOc1ccc2c(c1)Oc1cc(OCOC(=O)COC(C)C)ccc1C21OC(=O)c2ccccc21; experiment: Esterase substrate specificity, fluorogenic SAR library kinetics; assay type: biochemical, Staphylococcus aureus; conditions: other: SaFrmB 15 µg/mL, pH 7.5, 37°C
Method: as §1

[2] = substrate: CC(C)SCC(=O)OCOc1ccc2c(c1)Oc1cc(OCOC(=O)CSC(C)C)ccc1C21OC(=O)c2ccccc21; experiment: as above; assay type: biochemical, Staphylococcus aureus; conditions: other: SaFrmB 15 µg/mL, pH 7.5, 37°C
Method: as §1

[3] = substrate: CCCC(=O)OCOc1ccc2c(c1)Oc1cc(OCOC(=O)CCC)ccc1C21OC(=O)c2ccccc21; experiment: as above; assay type: biochemical, Staphylococcus aureus; conditions: other: SaFrmB 15 µg/mL, pH 7.5, 37°C
Method: as §1

[4] = substrate: CCCCC(=O)OCOc1ccc2c(c1)Oc1cc(OCOC(=O)CCCC)ccc1C21OC(=O)c2ccccc21; experiment: as above; assay type: biochemical, Staphylococcus aureus; conditions: other: SaFrmB 15 µg/mL, pH 7.5, 37°C
Method: as §1

[5] = substrate: CCCOCC(=O)OCOc1ccc2c(c1)Oc1cc(OCOC(=O)COCCC)ccc1C21OC(=O)c2ccccc21; experiment: as above; assay type: biochemical, Staphylococcus aureus; conditions: other: SaFrmB 15 µg/mL, pH 7.5, 37°C
Method: as §1

[6] = substrate: CCOC(C)C(=O)OCOc1ccc2c(c1)Oc1cc(OCOC(=O)C(C)OCC)ccc1C21OC(=O)c2ccccc21; experiment: as above; assay type: biochemical, Staphylococcus aureus; conditions: other: SaFrmB 15 µg/mL, pH 7.5, 37°C
Method: as §1

[7] = substrate: CCOCC(=O)OCOc1ccc2c(c1)Oc1cc(OCOC(=O)COCC)ccc1C21OC(=O)c2ccccc21; experiment: as above; assay type: biochemical, Staphylococcus aureus; conditions: other: SaFrmB 15 µg/mL, pH 7.5, 37°C
Method: as §1

[8] = substrate: CCSCCC(=O)OCOc1ccc2c(c1)Oc1cc(OCOC(=O)CCSCC)ccc1C21OC(=O)c2ccccc21; experiment: as above; assay type: biochemical, Staphylococcus aureus; conditions: other: SaFrmB 15 µg/mL, pH 7.5, 37°C
Method: as §1

[9] = substrate: COC(C)(C)C(=O)OCOc1ccc2c(c1)Oc1cc(OCOC(=O)C(C)(C)OC)ccc1C21OC(=O)c2ccccc21; experiment: as above; assay type: biochemical, Staphylococcus aureus; conditions: other: SaFrmB 15 µg/mL, pH 7.5, 37°C
Method: as §1

[10] = substrate: COC(C)C(=O)OCOc1ccc2c(c1)Oc1cc(OCOC(=O)C(C)OC)ccc1C21OC(=O)c2ccccc21; experiment: as above; assay type: biochemical, Staphylococcus aureus; conditions: other: SaFrmB 15 µg/mL, pH 7.5, 37°C
Method: as §1

[11] = substrate: COCC(=O)OCOc1ccc2c(c1)Oc1cc(OCOC(=O)COC)ccc1C21OC(=O)c2ccccc21; experiment: as above; assay type: biochemical, Staphylococcus aureus; conditions: other: SaFrmB 15 µg/mL, pH 7.5, 37°C
Method: as §1

[12] = substrate: COCCC(=O)OCOc1ccc2c(c1)Oc1cc(OCOC(=O)CCOC)ccc1C21OC(=O)c2ccccc21; experiment: as above; assay type: biochemical, Staphylococcus aureus; conditions: other: SaFrmB 15 µg/mL, pH 7.5, 37°C
Method: as §1

[13] = substrate: CSCCC(=O)OCOc1ccc2c(c1)Oc1cc(OCOC(=O)CCSC)ccc1C21OC(=O)c2ccccc21; experiment: as above; assay type: biochemical, Staphylococcus aureus; conditions: other: SaFrmB 15 µg/mL, pH 7.5, 37°C
Method: as §1

Molecule: COCC(=O)OCOc1ccc2c(c1)Oc1cc(OCOC(=O)COC)ccc1C21OC(=O)c2ccccc21 [1O]
- kcat/kuncat (SaFrmB; SaFrmB): 1.34 103
- In vitro activity (catalytic efficiency) for FrmB, in words (SaFrmB): high activity; also recorded: highest catalytic efficiency substrate
- kcat/kuncat (SaGloB; SaGloB, normalised to uncatalysed hydrolysis rate): 38.6 103
- In vitro activity (catalytic efficiency) for GloB, in words (SaGloB; fluorogenic ester substrate): high activity; also recorded: highest catalytic efficiency substrate
- Km (human sera): 64.1 µM
- Vmax (human sera): 68.6 pmol*min-1*mg sera-1
- Km (mouse sera): > 50 µM
- Time to intracellular fluorescence saturation (S. aureus; images every 2 min): < 2 min

Molecule: CCCCCC(=O)OCOc1ccc2c(c1)Oc1cc(OCOC(=O)CCCCC)ccc1C21OC(=O)c2ccccc21 [3C]
- Km (SaFrmB; SaFrmB 15 µg/mL, pH 7.5, 37°C): > 50 µM
- In vitro activity (catalytic efficiency) for FrmB, in words (SaFrmB): moderate activity
- Km (SaGloB; SaGloB, fluorogenic ester substrate): > 50 µM
- In vitro activity (catalytic efficiency) for GloB, in words (SaGloB; fluorogenic ester substrate): moderate activity
- Km (human sera): > 50 µM
- Km (mouse sera): > 50 µM
- Intracellular activation (fluorescence) in live S. aureus, in words (S. aureus; 30 min of observation): slowly activates over the duration of the experiment

B1: SaFrmB (Staphylococcus aureus subsp. aureus str. Newman) (protein)
chain: MAYISLNYHSPTIGMHQNLTVILPEDQSFFNSDTTVKPLKTLMLLHGLSSDETTYMRYTSIERYANEHKLAVIMPNVDHSAYANMAYGHSYYDYILEVYDYVHQIFPLSKKRDDNFIAGHSMGGYGTIKFALTQGDKFAKAVPLSAVFEAQNLMDLEWNDFSKEAIIGNLSSVKGTEHDPYYLLDKAVAEDKQIPKLLIMCGKQDFLYQDNLDFIDYLSRINVPYQFEDGPGDHDYAYWDQAIKRAITWMVND
notes: made in house; host or cells: E. coli BL21 (DE3)
- Km [1]: 9.17 µM
- Vmax [1]: 0.597 pmol*min-1*μg protein-1
- kcat [1]: 0.112 10-3 s-1
- kcat/Km [1]: 12.3 M⁻¹ s⁻¹
- Km [2]: 36.3 µM
- Vmax [2]: 0.629 pmol*min-1*μg protein-1
- kcat [2]: 0.118 10-3 s-1
- kcat/Km [2]: 3.27 M⁻¹ s⁻¹
- Km [3]: 30.4 µM
- Vmax [3]: 0.149 pmol*min-1*μg protein-1
- kcat [3]: 0.0280 10-3 s-1
- kcat/Km [3]: 0.921 M⁻¹ s⁻¹
- Km [4]: 26.5 µM
- Vmax [4]: 0.0637 pmol*min-1*μg protein-1
- kcat [4]: 0.0120 10-3 s-1
- kcat/Km [4]: 0.452 M⁻¹ s⁻¹
- Km [5]: 9.95 µM
- Vmax [5]: 0.621 pmol*min-1*μg protein-1
- kcat [5]: 0.117 10-3 s-1
- kcat/Km [5]: 11.7 M⁻¹ s⁻¹
- Km [6]: 18.3 µM
- Vmax [6]: 0.163 pmol*min-1*μg protein-1
- kcat [6]: 0.0307 10-3 s-1
- kcat/Km [6]: 1.68 M⁻¹ s⁻¹
- Km [7]: 13.9 µM
- Vmax [7]: 2.04 pmol*min-1*μg protein-1
- kcat [7]: 0.385 10-3 s-1
- kcat/Km [7]: 27.7 M⁻¹ s⁻¹
- Km [8]: 11.1 µM
- Vmax [8]: 0.0295 pmol*min-1*μg protein-1
- kcat [8]: 0.00556 10-3 s-1
- kcat/Km [8]: 0.500 M⁻¹ s⁻¹
- Km [9]: 74.2 µM
- Vmax [9]: 0.163 pmol*min-1*μg protein-1
- kcat [9]: 0.0307 10-3 s-1
- kcat/Km [9]: 0.414 M⁻¹ s⁻¹
- Km [10]: 107 µM
- Vmax [10]: 2.57 pmol*min-1*μg protein-1
- kcat [10]: 0.485 10-3 s-1
- kcat/Km [10]: 4.52 M⁻¹ s⁻¹
- Km [11]: 30.3 µM
- Vmax [11]: 5.98 pmol*min-1*μg protein-1
- kcat [11]: 1.13 10-3 s-1
- kcat/Km [11]: 37.2 M⁻¹ s⁻¹
- Km [12]: 30.0 µM
- Vmax [12]: 0.183 pmol*min-1*μg protein-1
- kcat [12]: 0.0345 10-3 s-1
- kcat/Km [12]: 1.15 M⁻¹ s⁻¹
- Km [13]: 52.7 µM
- Vmax [13]: 0.505 pmol*min-1*μg protein-1
- kcat [13]: 0.0950 10-3 s-1
- kcat/Km [13]: 1.80 M⁻¹ s⁻¹
